Series [1] can be described thus: In vitro stability in serum by radio-HPLC. It is filed as in vitro ADME. The settings on record: fetal calf serum (result text); newborn calf serum / 2 mL human serum in method; 37 MBq, 37 °C, incubation 6 h (analysed at 0 min, 3, 4, 6 h); radio-HPLC radiochemical purity. The procedure:
The stability of ^99mTc-3P-RGD2 in newborn calf serum was determined after incubating the radiolabeled compound (37 MBq) in 2 mL […] at 37 °C. Every 20 μL mixture was injected directly into the radio-HPLC to analyze the radiochemistry purity, which was followed by radiolabeling efficiency analysis at 0 min, 3, 4, and 6 h.
Fig. 2 Radio-HPLC analysis of ^99mTc-3P-RGD2 stability. ^99mTc-3P-RGD2 incubated in new-born calf serum for 0 min (a), 3 h (b), 4 h (c), 6 h (d) after labeling

Series [2] in a line: Biodistribution in CNE-1 tumor bearing mice. The conditions noted are these: female, BALB/c nude, mouse, iv, total radioactivity, CNE-1 model, mean ± SD. It is filed as in vivo. How it is done: (§1) Female BALB/c nude mice (4–5 weeks of age, 15–20 g of weight) were purchased from the Department of Animal Experiment, Chinese Academy of Medical Sciences. The mice were subcutaneously implanted with 3 × 10^6 the HEP-2 cells (6 mice) or 2 × 10^5 the CNE-1 cells (6 mice) in 0.1 mL of saline into the right upper shoulder flanks. All procedures were performed in a laminar flow cabinet using the aseptic technique. Fifteen to nineteen days after inoculation, the tumor size was 1–1.5 cm, the tumor-bearing mice were used for biodistribution and imaging studies. Capital Medical University Animal Care and Use Committee approved the animal experiments.
(§2) The biodistribution of ^99mTc-3P-RGD2 in HEP-2 tumor bearing mice and CNE-1 tumor bearing mice was evaluated in groups of 3 mice per time point at 60 min and 120 min after injection of approximately 0.55–0.74 MBq of ^99mTc-3P-RGD2 in 0.1 mL saline via tail vein. From all mice, tumors and tissue samples (blood, heart, liver, spleen, kidney, lung, intestine and muscle) were harvested and weighed. Subsequently, radioactivity uptake was determined in γ-counter. Activity concentrations in the tissues were calculated as percentage of the injected dose per gram of tissue (%ID/g). To correct for radioactive decay, injection standards were counted simultaneously.

The nature of series [3]: Biodistribution in HEP-2 tumor bearing mice. It is filed as in vivo, BALB/c nude mice. The conditions noted are these: female, BALB/c nude, mouse, iv, total radioactivity, HEP-2 model, mean ± SD. How it is done:
as §1, §2

In another series the test system is HEP-2 tumor. Description: Biodistribution in HEP-2 tumor bearing mice. In kind it is in vivo, BALB/c nude mice. The conditions noted are these: stated for HEP-2 and CNE-1 tumor models together. How it is done:
as §1, §2

The text below walks through data of publication PMC4514642, “^99mTc-3P-RGD2 molecular imaging targeting integrin αvβ3 in head and neck squamous cancer xenograft” (Journal of Radioanalytical and Nuclear Chemistry, 2015).

A word on the tissue uptake: it is the share of the injected amount in each gram of the tissue.

In the case of `N=C(N)NCCC[C@@H]1NC(=O)[C@H](CCCCNC(=O)CCOCCOCCOCCOCCNC(=O)CC[C@H](NC(=O)CCOCCOCCOCCOCCNC(=O)c2ccc(NN)nc2)C(=O)NCCOCCOCCOCCOCCC(=O)NCCCC[C@@H]2NC(=O)[C@@H](Cc3ccccc3)NC(=O)[C@H](CC(=O)O)NC(=O)CNC(=O)[C@H](CCCNC(=N)N)NC2=O)NC(=O)[C@@H](Cc2ccccc2)NC(=O)[C@H](CC(=O)O)NC(=O)CNC1=O` [^99mTc-3P-RGD2, [^99mTc(HYNIC-3P-RGD2)(tricine)(TPPTS)], metal not drawn], the “stability in serum (radio-HPLC)” value in series [1] is recorded as “stable”. Further, the tissue to tissue ratio at 2 h in series [2] (CNE-1 tumor / blood, 120 min p.i., read-out: tumor/blood ratio) was 2.49 ± 0.09; in series [2] (CNE-1 tumor / muscle, 120 min p.i., read-out: tumor/muscle ratio), 1.86 ± 0.07; in series [3] (HEP-2 tumor / blood, 120 min p.i., read-out: tumor/blood ratio), 6.37 ± 0.68; in series [3] (HEP-2 tumor / muscle, 120 min p.i., read-out: tumor/muscle ratio), 4.44 ± 0.42. Besides, the tissue uptake at 1 h in series [2] (CNE-1 tumor, 60 min p.i., tail vein 0.55–0.74 MBq, γ-counter, %ID/g, 3 mice per time point) is 2.74 ± 0.51 %ID/g; in series [3] (HEP-2 tumor, 60 min p.i., tail vein 0.55–0.74 MBq, γ-counter, %ID/g, 3 mice per time point) it was 6.25 ± 0.22 %ID/g. In addition, the tissue uptake at 2 h in series [2] (CNE-1 tumor, 120 min p.i., tail vein 0.55–0.74 MBq, γ-counter, %ID/g, 3 mice per time point) is 1.69 ± 0.18 %ID/g; in series [3] (HEP-2 tumor, 120 min p.i., tail vein 0.55–0.74 MBq, γ-counter, %ID/g, 3 mice per time point) it was 4.56 ± 0.67 %ID/g. Further, the “uptake in blood and muscle” value in the series with HEP-2 tumor (60 min p.i.) is reported as “low”. Moreover, in the series on HEP-2 tumor, the route of excretion result is on record as “excreted predominantly via the renal route”. Also, the kidney uptake result in the series with HEP-2 tumor (selected organs) is “highest in the selected organs”.
